Data as given in patent US20250157661.

B1: MMP1 (Enzo) (protein)
chain: FVLTEGNPRWEQTHLTYRIENYTPDLPRADVDHAIEKAFQLWSNVTPLTFTKVSEGQADIMISFVRGDHRDNSPFDGPGGNLAHAFQPGPGIGGDAHFDEDERWTNNFREYNLHRVAAHELGHSLGLSHSTDIGALMYPSYTFSGDVQLAQDDIDGIQAIYGRSQNPVQP
B2: MMP7 (Enzo) (protein)
chain: YSLFPNSPKWTSKVVTYRIVSYTRDLPHITVDRLVSKALNMWGKEIPLHFRKVVWGTADIMIGFARGAHGDSYPFDGPGNTLAHAFAPGTGLGGDAHFDEDERWTDGSSLGINFLYAATHELGHSLGMGHSSDPNAVMYPTYGNGDPQNFKLSQDDIKGIQKLYGKRSNSRKK
B3: MMP11 (Enzo) (protein)
chain: FVLSGGRWEKTDLTYRILRFPWQLVQEQVRQTMAEALKVWSDVTPLTFTEVHEGRADIMIDFARYWHGDDLPFDGPGGILAHAFFPKTHREGDVHFDYDETWTIGDDQGTDLLQVAAHEFGHVLGLQHTTAAKALMSAFYTFRYPLSLSPDDCRGVQHLYGQPWPTVTSRTPALG
B4: MMP12 (Enzo) (protein)
chain: GPVWRKHYITYRINNYTPDMNREDVDYAIRKAFQVWSNVTPLKFSKINTGMADILVVFARGAHGDFHAFDGKGGILAHAFGPGSGIGGDAHFDEDEFWTTHSGGTNLFLTAVHEIGHSLGLGHSSDPKAVMFPTYKYVDINTFRLSADDIRGIQSLYG

Target: Indicator molecule containing the cleavable sequence GPQGIFGQ with a terminal biotin group connected via a polyethylene glycol spacer/linker (intact, Examples 1-6)

Row | Protein | Reader value (lateral flow, CF1522-gold) with MMP at 0.5 ug/ml [reader units]
1 | B1 | 478
2 | B2 | 373
3 | B3 | 280
4 | B4 | 1250
